Key:
[1] = target: T1, Complement Factor H protein (human, UniProt P08603 19-1231); experiment: plate-bound complement activation assay: BSA-DNP coat, bsAb with normal human serum, FH detected
T1 construct: Plasma protein, bought purified or present in normal human serum; also called FH; CFH
Procedure: BsAbs were functionally tested in plate-bound complement activation assays. To focus on the classical pathway, MaxiSorp plates were coated with 50 μL/well of a mixture of IgG (10 μg/mL, IVIg, Sanquin) or IgM (1 μg/mL, Merck, 401799) and BSA-DNP (10 μg/mL) or biotinylated BSA-DNP (10 μg/mL, biotinylated in-house) in coating buffer for 1 hour at 37° C. After every incubation, plates were washed three times with PBS/0.05% Tween 20. Plates were blocked with 100 μL/well PBS/1% BSA for 1 hour at 37° C. Samples containing 5 μg/mL (or a titration from 0.1 to 10 μg/mL) bsAbs, 10 μg/mL FH or C4BP, and 1% normal human serum (NHS) in RPMI were preincubated for 30 minutes at 4° C. After washing, plates were incubated with 50 μL/well samples for 1 hour at 37° C. Next, FH and C4BP were detected as described above for the bispecificity ELISA (using goat anti-human FH and HRP-labeled rabbit anti-goat Ig, or using rabbit anti-human C4BP and HRP-labeled goat anti-rabbit Ig), and C5b-9 was detected using mouse anti-human C5b-9 (Dako, M0777) and HRP-labeled goat anti-mouse Ig (Dako, P0447), all diluted in PTB buffer. Plates were developed by incubating with 50 μL/well ABTS containing 1:2000 diluted H₂O₂, and read at 415 nm using a microplate reader. […]

C4b-binding protein = target: T2, C4b-binding protein (human, UniProt P04003 49-597; P20851 18-252); experiment: plate-bound complement activation assay: BSA-DNP coat, bsAb with normal human serum, C4BP detected
T2 construct: also called C4BP
T2 sequence (looked up) 1: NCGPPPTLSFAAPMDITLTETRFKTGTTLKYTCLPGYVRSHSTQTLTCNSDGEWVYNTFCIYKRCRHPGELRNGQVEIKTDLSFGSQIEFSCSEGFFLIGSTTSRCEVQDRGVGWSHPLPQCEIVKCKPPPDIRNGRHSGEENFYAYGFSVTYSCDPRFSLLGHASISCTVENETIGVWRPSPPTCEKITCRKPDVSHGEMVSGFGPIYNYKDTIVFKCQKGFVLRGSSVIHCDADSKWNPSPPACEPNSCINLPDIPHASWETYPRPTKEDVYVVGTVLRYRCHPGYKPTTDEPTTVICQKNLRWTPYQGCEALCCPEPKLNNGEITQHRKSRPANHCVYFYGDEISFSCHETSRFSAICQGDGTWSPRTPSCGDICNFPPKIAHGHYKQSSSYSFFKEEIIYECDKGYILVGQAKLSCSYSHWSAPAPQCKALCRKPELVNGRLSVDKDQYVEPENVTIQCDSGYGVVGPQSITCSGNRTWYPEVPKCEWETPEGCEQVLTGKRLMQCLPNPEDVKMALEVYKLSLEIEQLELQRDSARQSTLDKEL
T2 sequence (looked up) 2: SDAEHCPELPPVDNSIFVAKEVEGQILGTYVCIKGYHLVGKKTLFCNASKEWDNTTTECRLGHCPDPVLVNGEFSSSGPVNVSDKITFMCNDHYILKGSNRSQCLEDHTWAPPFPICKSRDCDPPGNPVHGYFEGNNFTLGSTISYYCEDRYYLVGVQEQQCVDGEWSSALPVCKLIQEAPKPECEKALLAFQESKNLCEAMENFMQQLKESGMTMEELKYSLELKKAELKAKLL
Procedure: BsAbs were functionally tested in plate-bound complement activation assays. To focus on the classical pathway, MaxiSorp plates were coated with 50 μL/well of a mixture of IgG (10 μg/mL, IVIg, Sanquin) or IgM (1 μg/mL, Merck, 401799) and BSA-DNP (10 μg/mL) or biotinylated BSA-DNP (10 μg/mL, biotinylated in-house) in coating buffer for 1 hour at 37° C. After every incubation, plates were washed three times with PBS/0.05% Tween 20. Plates were blocked with 100 μL/well PBS/1% BSA for 1 hour at 37° C. Samples containing 5 μg/mL (or a titration from 0.1 to 10 μg/mL) bsAbs, 10 μg/mL FH or C4BP, and 1% normal human serum (NHS) in RPMI were preincubated for 30 minutes at 4° C. After washing, plates were incubated with 50 μL/well samples for 1 hour at 37° C. Next, FH and C4BP were detected as described above for the bispecificity ELISA (using goat anti-human FH and HRP-labeled rabbit anti-goat Ig, or using rabbit anti-human C4BP and HRP-labeled goat anti-rabbit Ig), and C5b-9 was detected using mouse anti-human C5b-9 (Dako, M0777) and HRP-labeled goat anti-mouse Ig (Dako, P0447), all diluted in PTB buffer. Plates were developed by incubating with 50 μL/well ABTS containing 1:2000 diluted H₂O₂, and read at 415 nm using a microplate reader.

T1 sequence (P08603 19-1231 limits assumed): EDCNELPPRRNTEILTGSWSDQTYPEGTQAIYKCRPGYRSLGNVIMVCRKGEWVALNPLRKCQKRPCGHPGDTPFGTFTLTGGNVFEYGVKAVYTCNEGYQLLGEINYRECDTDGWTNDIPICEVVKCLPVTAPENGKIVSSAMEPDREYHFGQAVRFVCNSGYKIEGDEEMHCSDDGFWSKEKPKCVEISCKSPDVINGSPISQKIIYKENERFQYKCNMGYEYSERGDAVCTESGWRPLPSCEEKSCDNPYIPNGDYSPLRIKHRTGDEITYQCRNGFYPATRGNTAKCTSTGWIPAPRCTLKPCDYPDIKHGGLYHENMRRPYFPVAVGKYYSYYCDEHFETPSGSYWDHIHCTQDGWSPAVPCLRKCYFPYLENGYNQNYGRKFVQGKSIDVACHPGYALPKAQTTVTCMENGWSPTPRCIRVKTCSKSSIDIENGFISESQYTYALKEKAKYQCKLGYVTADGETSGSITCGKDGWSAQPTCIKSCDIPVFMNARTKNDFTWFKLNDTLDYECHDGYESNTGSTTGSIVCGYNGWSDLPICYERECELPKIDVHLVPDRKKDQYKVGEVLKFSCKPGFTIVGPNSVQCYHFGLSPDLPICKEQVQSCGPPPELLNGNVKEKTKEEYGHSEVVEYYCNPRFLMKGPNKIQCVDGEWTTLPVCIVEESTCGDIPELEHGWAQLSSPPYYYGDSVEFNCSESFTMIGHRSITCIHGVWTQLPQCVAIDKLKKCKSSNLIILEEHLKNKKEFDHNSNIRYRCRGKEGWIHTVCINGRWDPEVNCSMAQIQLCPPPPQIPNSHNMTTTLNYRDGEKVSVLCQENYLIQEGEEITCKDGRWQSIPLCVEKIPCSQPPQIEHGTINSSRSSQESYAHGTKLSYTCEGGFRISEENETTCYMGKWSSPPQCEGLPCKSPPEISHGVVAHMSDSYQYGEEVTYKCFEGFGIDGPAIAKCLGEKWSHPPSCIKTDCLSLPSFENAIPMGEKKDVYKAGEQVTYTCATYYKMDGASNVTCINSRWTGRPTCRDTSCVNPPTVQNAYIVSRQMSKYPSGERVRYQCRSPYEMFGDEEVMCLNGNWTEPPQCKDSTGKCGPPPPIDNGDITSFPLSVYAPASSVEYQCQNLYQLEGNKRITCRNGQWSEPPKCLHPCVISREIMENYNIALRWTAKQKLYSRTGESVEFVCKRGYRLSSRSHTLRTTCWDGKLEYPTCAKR

B1: Anti-HIV F405L LALAPG, Anti-DNP K409R LALAPG (bispecific antibody, human IgG1, kappa, L234A L235A)
heavy 1: QVQLVQSGAEVKKPGASVKVSCQASGYRFSNFVIHWVRQAPGQRFEWMGWINPYNGNKEFSAKFQDRVTFTADTSANTAYMELRSLRSADTAVYYCARVGPYSWDDSPQDNYYMDVWGKGTTVIVSSASTKGPSVFPLAPSSKSTSGGTAALGCLVKDYFPEPVTVSWNSGALTSGVHTFPAVLQSSGLYSLSSVVTVPSSSLGTQTYICNVNHKPSNTKVDKRVEPKSCDKTHTCPPCPAPEAAGGPSVFLFPPKPKDTLMISRTPEVTCVVVDVSHEDPEVKFNWYVDGVEVHNAKTKPREEQYNSTYRVVSVLTVLHQDWLNGKEYKCKVSNKALGAPIEKTISKAKGQPREPQVYTLPPSREEMTKNQVSLTCLVKGFYPSDIAVEWESNGQPENNYKTTPPVLDSDGSFLLYSKLTVDKSRWQQGNVFSCSVMHEALHNHYTQKSLSLSPGK
light 1: EIVLTQSPGTLSLSPGERATFSCRSSHSIRSRRVAWYQHKPGQAPRLVIHGVSNRASGISDRFSGSGSGTDFTLTITRVEPEDFALYYCQVYGASSYTFGQGTKLERKRTVAAPSVFIFPPSDEQLKSGTASVVCLLNNFYPREAKVQWKVDNALQSGNSQESVTEQDSKDSTYSLSSTLTLSKADYEKHKVYACEVTHQGLSSPVTKSFNRGEC
heavy 2: DVRLQESGPGLVKPSQSLSLTCSVTGYSITNSYYWNWIRQFPGNKLEWMVYIGYDGSNNYNPSLKNRISITRDTSKNQFFLKLNSVTTEDTATYYCARATYYGNYRGFAYWGQGTLVTVSAASTKGPSVFPLAPSSKSTSGGTAALGCLVKDYFPEPVTVSWNSGALTSGVHTFPAVLQSSGLYSLSSVVTVPSSSLGTQTYICNVNHKPSNTKVDKRVEPKSCDKTHTCPPCPAPEAAGGPSVFLFPPKPKDTLMISRTPEVTCVVVDVSHEDPEVKFNWYVDGVEVHNAKTKPREEQYNSTYRVVSVLTVLHQDWLNGKEYKCKVSNKALGAPIEKTISKAKGQPREPQVYTLPPSREEMTKNQVSLTCLVKGFYPSDIAVEWESNGQPENNYKTTPPVLDSDGSFFLYSRLTVDKSRWQQGNVFSCSVMHEALHNHYTQKSLSLSPGK
light 2: DIRMTQTTSSLSASLGDRVTISCRASQDISNYLNWYQQKPDGTVKLLIYYTSRLHSGVPSRFSGSGSGTDYSLTISNLEQEDIATYFCQQGNTLPWTFGGGTKLEIKRTVAAPSVFIFPPSDEQLKSGTASVVCLLNNFYPREAKVQWKVDNALQSGNSQESVTEQDSKDSTYSLSSTLTLSKADYEKHKVYACEVTHQGLSSPVTKSFNRGEC
notes: also called anti-HIV x anti-DNP
binding result [1]: no binding
binding result (C4b-binding protein): no binding
